According to the RNAGym collection of RNA variant scans (doi:10.7554/elife.90254):

B1: LINE1-full (parent)
chain: UACGUAGGUGGUUUUCCCCUGAUAGUGCUAAGGGGGCCUGGAAGUUUGGACUGGGCAGAGCUCAACACAGCGUGGCAAAGUGGCUGUGGCUAGACUGCCUCUCUGGAUUCCUCGUCACUCAGCAGGGCAUCUCUGAGAGAAAUGCC

Variants of: B1
Assay: self-cleavage, relative activity (ratio to wild type); higher = more cleavage; in vitro, sequencing; the parent is a self-cleaving ribozyme

Going from A65G C71U to A50U A121G, the self-cleavage rises from 0.03 to 1.09.

Compared with A67C A138U, A78G U81A is higher in self-cleavage: 0.03 for the first, 0.47 for the second.

First: U12C A43C
Second: G125U U134G
The self-cleavage of the first is higher: 1.45 for the first, 1.26 for the second.

Going from A24U C37G to C56A U73C, the self-cleavage falls from 0.82 to 0.05.

Compared with A24U A136G, U23C U73C is higher in self-cleavage: 1.64 for the first, 1.81 for the second.

Going from G32U U132A to G83U A117U, the self-cleavage rises from 1.2 to 1.21.

Compared with U109C A142U, G75A A141G is lower in self-cleavage: 1.49 for the first, 1.16 for the second.

Going from A67U C103A to A77U A136G, the self-cleavage rises from 0.15 to 1.19.

First: U45C U132C
Second: G33U U73A
The self-cleavage of the first is higher: 1.51 for the first, 1.38 for the second.

Going from U26G G125U to A31G C145G, the self-cleavage rises from 1.59 to 1.63.

First: A30G G88C
Second: A24G A57U
The self-cleavage of the first is higher: 0.44 for the first, 0.27 for the second.

Going from U29C U104C to U26A A77G, the self-cleavage rises from 1 to 1.84.

Going from A6U A136G to A117G A129U, the self-cleavage falls from 1.33 to 1.29.

First: G125C A138G
Second: G40A A141G
The self-cleavage of the first is higher: 1.9 for the first, 1.06 for the second.

Going from A67G G126A to G97U, the self-cleavage falls from 0.58 to 0.06.

Compared with C18U U52A, G126C G137A is lower in self-cleavage: 1.54 for the first, 1.45 for the second.

Going from G53A U115A to G53A U115C, the self-cleavage falls from 1.31 to 1.07.

First: A67G U119C
Second: U91C U115C
The self-cleavage of the first is higher: 1.07 for the first, 0.83 for the second.

Going from G41C U45C to A64U A129U, the self-cleavage falls from 0.68 to 0.46.

First: C37G A141G
Second: C133U A138G
The self-cleavage of the first is higher: 1.66 for the first, 1.32 for the second.

Compared with A67G C84G, A92G A124U is higher in self-cleavage: 0.04 for the first, 0.09 for the second.

Compared with C51U U81C, G97A U109A is lower in self-cleavage: 1.57 for the first, 0.07 for the second.

First: U39C U100C
Second: A69U A138U
The self-cleavage of the first is higher: 2.36 for the first, 0.09 for the second.

Going from U39G U62C to A69G, the self-cleavage rises from 0.1 to 0.5.

Compared with A65G U108C, U15C A57C is higher in self-cleavage: 0.07 for the first, 0.09 for the second.

Going from G34U A94G to C17A, the self-cleavage rises from 0.26 to 1.27.

Compared with U81A U119A, G86A U100C is lower in self-cleavage: 2.53 for the first, 0.1 for the second.

Going from C28A A117G to U81A U115A, the self-cleavage rises from 0.74 to 2.46.

Compared with U62C A79U, C110U A124G is higher in self-cleavage: 0.03 for the first, 0.82 for the second.

Compared with A6U A67U, G4A C145U is higher in self-cleavage: 0.22 for the first, 1.11 for the second.

Going from A43U A69G to A31U C146A, the self-cleavage rises from 0.59 to 0.88.

Compared with C66U A69G, U12G U104C is higher in self-cleavage: 0.06 for the first, 1.48 for the second.

Compared with A57U A59G, G44A U46C is higher in self-cleavage: 0.05 for the first, 1.06 for the second.

First: U29C U108C
Second: U104C G122A
The self-cleavage of the first is lower: 1.27 for the first, 1.54 for the second.

First: U26A U143C
Second: U115A A138C
The self-cleavage of the first is lower: 0.86 for the first, 1.8 for the second.

First: U39G A79G
Second: U85G U112A
The self-cleavage of the first is higher: 1.28 for the first, 0.26 for the second.

First: A67U U115C
Second: G34U A136G
The self-cleavage of the first is lower: 0.34 for the first, 1.54 for the second.

First: G54A A69G
Second: C76U A117G
The self-cleavage of the first is lower: 0.18 for the first, 2.24 for the second.

Going from U13A A77G to G82A C84U, the self-cleavage rises from 0.46 to 0.51.

Going from U5C C37U to U52C U130C, the self-cleavage rises from 1.02 to 1.84.

Compared with U62A, G88U G126A is lower in self-cleavage: 0.04 for the first, 0 for the second.

Compared with G127U A129G, U26G A79G is lower in self-cleavage: 0.75 for the first, 0.53 for the second.

Going from U15A U52C to G86U A107G, the self-cleavage falls from 0.9 to 0.02.

Going from U23C A140C to A31G A129U, the self-cleavage falls from 1.35 to 0.84.

U47A C61A and U81C C90U are the same in self-cleavage: 0.03 for the first, 0.03 for the second.

First: G40A A57G
Second: A64G A78G
The self-cleavage of the first is higher: 0.4 for the first, 0.25 for the second.

First: C84U A94G
Second: U45C U112G
The self-cleavage of the first is lower: 0.04 for the first, 1.31 for the second.

First: U100A U102A
Second: U45A C51G
The self-cleavage of the first is lower: 0.49 for the first, 1.44 for the second.

Going from U100C C103U to A42G A140G, the self-cleavage falls from 1.65 to 1.46.

Going from C99U A141G to U13C G139U, the self-cleavage rises from 0.62 to 1.19.

Compared with U85C C99U, G60A G127A is lower in self-cleavage: 0.07 for the first, 0.03 for the second.

Going from G41A U134C to A77U C84U, the self-cleavage falls from 1.15 to 0.08.

Going from A79U G89U to G21A A57C, the self-cleavage rises from 0.03 to 0.09.

Going from G48A A140G to U29C A65C, the self-cleavage falls from 1.02 to 0.1.

First: U13A U115C
Second: G21U A42U
The self-cleavage of the first is higher: 1.56 for the first, 1.03 for the second.

First: U12G G72A
Second: U5A A42G
The self-cleavage of the first is lower: 0.9 for the first, 1.15 for the second.

Compared with U112C C120U, G25A U115A is lower in self-cleavage: 1.37 for the first, 1.05 for the second.

First: A69G A140U
Second: G32U U115A
The self-cleavage of the first is lower: 0.47 for the first, 1.04 for the second.

Compared with U29G U130C, A57U A129G is lower in self-cleavage: 0.63 for the first, 0.13 for the second.

Compared with U5C A117U, G70A A92G is lower in self-cleavage: 1.03 for the first, 0.04 for the second.

First: C116G U134C
Second: C118U A138G
The self-cleavage of the first is lower: 0.99 for the first, 1.18 for the second.

Compared with A65G A69G, A69G A78U is higher in self-cleavage: 0 for the first, 0.63 for the second.

Compared with U15C A141U, A57C A136G is lower in self-cleavage: 1.58 for the first, 0.05 for the second.

First: U52A C146A
Second: U13A U14C
The self-cleavage of the first is higher: 1.16 for the first, 0.46 for the second.

Compared with U96A U104C, A22G U130C is higher in self-cleavage: 0.07 for the first, 1.3 for the second.

Compared with G40A U52A, U9G C56U is lower in self-cleavage: 1.25 for the first, 0.24 for the second.

Going from U46C G93A to U12C A107U, the self-cleavage rises from 0.07 to 0.66.

Going from A69U U85A to A42G U81A, the self-cleavage rises from 0.5 to 2.11.

Going from U85A U130C to C56U U100C, the self-cleavage rises from 0.1 to 0.44.

First: U13C U87G
Second: C51U U132C
The self-cleavage of the first is lower: 0.21 for the first, 0.69 for the second.

Going from C84A C145U to U15C A129G, the self-cleavage rises from 0.08 to 1.54.

Going from U47G A107G to C28U U96A, the self-cleavage falls from 1.24 to 0.06.

Going from A6U A121G to U45C U108C, the self-cleavage rises from 0.87 to 2.11.

Going from U14C U46A to U1A C3U, the self-cleavage falls from 1.4 to 0.

Going from A121U to A2U A59G, the self-cleavage falls from 1.34 to 0.

Going from A43G A78G to A31U U87A, the self-cleavage falls from 1.2 to 0.14.

Going from U13C A107C to U96G A142G, the self-cleavage falls from 0.94 to 0.17.

First: U13C C98U
Second: U119C C128U
The self-cleavage of the first is lower: 0.35 for the first, 1.13 for the second.

First: C66U U85C
Second: A69G C103A
The self-cleavage of the first is lower: 0.02 for the first, 0.43 for the second.

First: G106A U132A
Second: G86A A124U
The self-cleavage of the first is higher: 0.61 for the first, 0.05 for the second.

First: U20A G35C
Second: U29A G54A
The self-cleavage of the first is higher: 1.12 for the first, 0.75 for the second.

Going from U85A G88A to U9A U46C, the self-cleavage rises from 0.23 to 0.98.

Going from U5A U96C to G40A A138G, the self-cleavage rises from 0.45 to 1.49.

In the case of U26G, the self-cleavage is reported as 0.99.
